Measurements published in the supplement of paper PMC9112550, “Optimization of the antimicrobial peptide Bac7 by deep mutational scanning” (BMC Biology, 2022).

test system: Escherichia coli TOP10; assay: shrunken log2 fold change of peptide-encoding DNA abundance (4.5 h post-induction vs induction); higher = less antimicrobial activity (less host growth inhibition); conditions: time post-induction: 4.5 h; library: site-saturation at positions 5, 18, 19, 20
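Further: peptides expressed intracellularly from a pBAD plasmid library in pooled LB shake-flask culture, induced with 0.3% L-arabinose, DNA abundance read by NGS, three biological replicates, DESeq2 with apeglm shrinkage.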

Sequence | shrunken log2 fold change
RRIRSRPPRLPRPRPRPIGHPRP | -0.171
RRIRSRPPRLPRPRPRPIGPPRP | -0.0999
RRIRSRPPRLPRPRPRPIHYPRP | -0.386
RRIRSRPPRLPRPRPRPIINPRP | -0.565
RRIRSRPPRLPRPRPRPIIRPRP | -1.09
RRIRSRPPRLPRPRPRPIKYPRP | -0.654
RRIRSRPPRLPRPRPRPILPPRP | 0.161
RRIRSRPPRLPRPRPRPIMWPRP | -0.109
RRIRSRPPRLPRPRPRPINNPRP | -0.647
RRIRSRPPRLPRPRPRPINYPRP | -0.336
RRIRSRPPRLPRPRPRPIPFPRP | -0.518
RRIRSRPPRLPRPRPRPIQHPRP | -0.204
RRIRSRPPRLPRPRPRPIQKPRP | 0.0496
RRIRSRPPRLPRPRPRPIQRPRP | 0.0978
RRIRSRPPRLPRPRPRPIRWPRP | 0.0723
RRIRSRPPRLPRPRPRPISLPRP | 1.99
RRIRSRPPRLPRPRPRPISPPRP | -0.402
RRIRSRPPRLPRPRPRPISYPRP | -0.117
RRIRSRPPRLPRPRPRPITGPRP | -0.105
RRIRSRPPRLPRPRPRPIWEPRP | 0.0462
RRIRSRPPRLPRPRPRPIYEPRP | -0.134
RRIRSRPPRLPRPRPRPIYHPRP | -0.884
RRIRSRPPRLPRPRPRPIYVPRP | -0.612
RRIRSRPPRLPRPRPRPKACPRP | -0.253
RRIRSRPPRLPRPRPRPKALPRP | 0.175

Sequence | shrunken log2 fold change
RRIRSRPPRLPRPRPRPKCNPRP | -0.174
RRIRSRPPRLPRPRPRPKCSPRP | -0.122
RRIRSRPPRLPRPRPRPKDYPRP | -0.128
RRIRSRPPRLPRPRPRPKEDPRP | 1.6
RRIRSRPPRLPRPRPRPKEGPRP | -0.0287
RRIRSRPPRLPRPRPRPKELPRP | 0.0175
RRIRSRPPRLPRPRPRPKETPRP | -0.0164
RRIRSRPPRLPRPRPRPKHWPRP | 0.311
RRIRSRPPRLPRPRPRPKINPRP | -0.424
RRIRSRPPRLPRPRPRPKKTPRP | -0.356
RRIRSRPPRLPRPRPRPKLEPRP | 0.165
RRIRSRPPRLPRPRPRPKMDPRP | 0.232
RRIRSRPPRLPRPRPRPKMPPRP | 0.0106
RRIRSRPPRLPRPRPRPKMWPRP | 0.458
RRIRSRPPRLPRPRPRPKNHPRP | -0.215
RRIRSRPPRLPRPRPRPKNKPRP | -0.242
RRIRSRPPRLPRPRPRPKNRPRP | 0.0193
RRIRSRPPRLPRPRPRPKPDPRP | 0.22
RRIRSRPPRLPRPRPRPKPPPRP | 0.292
RRIRSRPPRLPRPRPRPKPSPRP | 0.263
RRIRSRPPRLPRPRPRPKSNPRP | -0.347
RRIRSRPPRLPRPRPRPKTHPRP | -0.0477
RRIRSRPPRLPRPRPRPKVCPRP | 0.00182
RRIRSRPPRLPRPRPRPKVWPRP | 0.115
RRIRSRPPRLPRPRPRPKWAPRP | -0.117

Sequence | shrunken log2 fold change
RRIRSRPPRLPRPRPRPKWQPRP | 0.255
RRIRSRPPRLPRPRPRPKWRPRP | 0.29
RRIRSRPPRLPRPRPRPKWVPRP | -0.209
RRIRSRPPRLPRPRPRPKYIPRP | -0.383
RRIRSRPPRLPRPRPRPLATPRP | 0.627
RRIRSRPPRLPRPRPRPLCTPRP | 0.0479
RRIRSRPPRLPRPRPRPLDIPRP | 0.00915
RRIRSRPPRLPRPRPRPLDNPRP | -0.339
RRIRSRPPRLPRPRPRPLFGPRP | 0.157
RRIRSRPPRLPRPRPRPLGEPRP | 0.175
RRIRSRPPRLPRPRPRPLGGPRP | 0.455
RRIRSRPPRLPRPRPRPLGVPRP | 0.0588
RRIRSRPPRLPRPRPRPLGWPRP | 0.76
RRIRSRPPRLPRPRPRPLHMPRP | 0.0919
RRIRSRPPRLPRPRPRPLKPPRP | 0.0304
RRIRSRPPRLPRPRPRPLLMPRP | 0.128
RRIRSRPPRLPRPRPRPLLSPRP | -0.051
RRIRSRPPRLPRPRPRPLMKPRP | 0.0556
RRIRSRPPRLPRPRPRPLMVPRP | 0.134
RRIRSRPPRLPRPRPRPLNIPRP | -0.422
RRIRSRPPRLPRPRPRPLQRPRP | 0.0641
RRIRSRPPRLPRPRPRPLRVPRP | 1.29
RRIRSRPPRLPRPRPRPLSDPRP | -0.0692
RRIRSRPPRLPRPRPRPLSEPRP | -0.48
RRIRSRPPRLPRPRPRPLVDPRP | 0.115

Sequence | shrunken log2 fold change
RRIRSRPPRLPRPRPRPLVEPRP | 0.28
RRIRSRPPRLPRPRPRPLYMPRP | -1
RRIRSRPPRLPRPRPRPMAIPRP | 4e-05
RRIRSRPPRLPRPRPRPMCEPRP | -0.0274
RRIRSRPPRLPRPRPRPMCFPRP | -0.149
RRIRSRPPRLPRPRPRPMCQPRP | -0.0136
RRIRSRPPRLPRPRPRPMCRPRP | -0.147
RRIRSRPPRLPRPRPRPMDFPRP | -0.215
RRIRSRPPRLPRPRPRPMDLPRP | 0.0372
RRIRSRPPRLPRPRPRPMDSPRP | -0.279
RRIRSRPPRLPRPRPRPMFPPRP | -0.22
RRIRSRPPRLPRPRPRPMGCPRP | -0.112
RRIRSRPPRLPRPRPRPMGIPRP | 0.0414
RRIRSRPPRLPRPRPRPMGRPRP | 0.0253
RRIRSRPPRLPRPRPRPMGSPRP | -0.205
RRIRSRPPRLPRPRPRPMHGPRP | 0.102
RRIRSRPPRLPRPRPRPMIGPRP | 0.0355
RRIRSRPPRLPRPRPRPMMAPRP | -0.199
RRIRSRPPRLPRPRPRPMMHPRP | -0.121
RRIRSRPPRLPRPRPRPMMTPRP | -0.0968
RRIRSRPPRLPRPRPRPMRKPRP | 0.853
RRIRSRPPRLPRPRPRPMSVPRP | -0.0847
RRIRSRPPRLPRPRPRPMWDPRP | 0.293
RRIRSRPPRLPRPRPRPMWFPRP | 0.14
RRIRSRPPRLPRPRPRPMYDPRP | 0.0313

Sequence | shrunken log2 fold change
RRIRSRPPRLPRPRPRPNAKPRP | 0.00752
RRIRSRPPRLPRPRPRPNARPRP | -0.119
RRIRSRPPRLPRPRPRPNATPRP | 0.551
RRIRSRPPRLPRPRPRPNCKPRP | -0.228
RRIRSRPPRLPRPRPRPNCMPRP | -0.0954
RRIRSRPPRLPRPRPRPNCTPRP | -0.531
RRIRSRPPRLPRPRPRPNCVPRP | 0.0124
RRIRSRPPRLPRPRPRPNDHPRP | -0.322
RRIRSRPPRLPRPRPRPNFKPRP | -0.0661
RRIRSRPPRLPRPRPRPNGHPRP | -0.0925
RRIRSRPPRLPRPRPRPNGIPRP | 0.033
RRIRSRPPRLPRPRPRPNISPRP | 0.00233
RRIRSRPPRLPRPRPRPNKLPRP | -0.643
RRIRSRPPRLPRPRPRPNLFPRP | -0.0477
RRIRSRPPRLPRPRPRPNLLPRP | -0.0918
RRIRSRPPRLPRPRPRPNMDPRP | -0.184
RRIRSRPPRLPRPRPRPNMTPRP | -0.247
RRIRSRPPRLPRPRPRPNMWPRP | -0.311
RRIRSRPPRLPRPRPRPNPSPRP | -0.00593
RRIRSRPPRLPRPRPRPNQQPRP | 0.121
RRIRSRPPRLPRPRPRPNQVPRP | -0.0256
RRIRSRPPRLPRPRPRPNQYPRP | 0.2
RRIRSRPPRLPRPRPRPNRHPRP | -0.219
RRIRSRPPRLPRPRPRPNRIPRP | -0.304
RRIRSRPPRLPRPRPRPNRQPRP | -0.403

Sequence | shrunken log2 fold change
RRIRSRPPRLPRPRPRPNSWPRP | 0.0508
RRIRSRPPRLPRPRPRPNTHPRP | -0.413
RRIRSRPPRLPRPRPRPNVVPRP | -0.0558
RRIRSRPPRLPRPRPRPNWPPRP | 0.278
RRIRSRPPRLPRPRPRPNYAPRP | -0.327
RRIRSRPPRLPRPRPRPPCFPRP | -0.0133
RRIRSRPPRLPRPRPRPPCMPRP | 0.464
RRIRSRPPRLPRPRPRPPCVPRP | 0.00342
RRIRSRPPRLPRPRPRPPEDPRP | 0.0304
RRIRSRPPRLPRPRPRPPFWPRP | 0.837
RRIRSRPPRLPRPRPRPPGGPRP | 0.724
RRIRSRPPRLPRPRPRPPGSPRP | 0.134
RRIRSRPPRLPRPRPRPPHLPRP | -0.00867
RRIRSRPPRLPRPRPRPPKRPRP | 0.626
RRIRSRPPRLPRPRPRPPLAPRP | 0.812
RRIRSRPPRLPRPRPRPPLKPRP | 0.0467
RRIRSRPPRLPRPRPRPPMIPRP | -0.17
RRIRSRPPRLPRPRPRPPMNPRP | -0.347
RRIRSRPPRLPRPRPRPPMRPRP | 1.02
RRIRSRPPRLPRPRPRPPNCPRP | 0.231
RRIRSRPPRLPRPRPRPPNIPRP | -0.251
RRIRSRPPRLPRPRPRPPNVPRP | 0.0837
RRIRSRPPRLPRPRPRPPPGPRP | 0.891
RRIRSRPPRLPRPRPRPPQMPRP | 0.154
RRIRSRPPRLPRPRPRPPRWPRP | 0.722
